Substrate in the series: CC/C(=C(\c1ccc(O)cc1)c1ccc(OCCN(C)C)cc1)c1ccccc1
The experiment in a line: Initial rate kinetics of TAM sulfation. As to conditions: other: TAM as substrate, pH 7.2, 25.0 °C. The class given is biochemical, human.

B1: SULT1A1 (Homo sapiens) (protein)
chain: MELIQDTSRPPLEYVKGVPLIKYFAEALGPLQSFQARPDDLLISTYPKSGTTWVSQILDMIYQGGDLEKCHRAPIFMRVPFLEFKAPGIPSGMETLKDTPAPRLLKTHLPLALLPQTLLDQKVKVVYVARNAKDVAVSYYHFYHMAKVHPEPGTWDSFLEKFMVGEVSYGSWYQHVQEWWELSRTHPVLYLFYEDMKENPKREIQKILEFVGRSLPEETVDFVVQHTSFKEMKKNPMTNYTTVPQEFMDHSISPFMRKGMAGDWKTTFTVAQNERFDADYAEKMAGCSLSFRSEL
Take B1: where the note is “E·(PAP)2 form, [PAPS] 250 μM”, the kcat (usually the maximal rate divided by the concentration of active sites) is 11 s⁻¹. Under “E·PAP form, [PAPS] 4.0 μM”, the Km is reported as 14 (1.0) μM and the catalytic constant (kcat) stood at 2 s⁻¹.

Values taken from article PMC4230322.
